In the first assay the target is T1, HLA-A1 (A*0101) (human).
T1 construct: Acid-stripped B-LCL
Kind of assay: cell competition vs YLEPAC(FI)AKY, stripped CAA B-LCL, FACS.
As to GTLHLERLAY (also called start 453) [PRAME peptide GTLHLERLAY], the IC50 came out at 2000 nM.

FLSLQCLQALY (also called start 292) [PRAME peptide FLSLQCLQALY] registered an IC50 of 1000 nM. For the molecule CSQLTTLSFY (also called start 405) [PRAME peptide CSQLTTLSFY], the IC50 is over 1000 nM.

As for YISPEKEEQY (also called start 275) [PRAME peptide YISPEKEEQY], the half-maximal inhibitory concentration (IC50) was determined as 3000 nM.

Regarding LSHIHASSY [PRAME peptide LSHIHASSY], the IC50 amounted to 1000 nM. Take SLQCLQALY (also called start 294) [PRAME peptide SLQCLQALY]: the IC50 was determined as 2000 nM.

The target of a further assay is T2, HLA-A3 (A*0301) (human).
T2 construct: HLA class I on acid-stripped EBV-transformed B cells (B-LCL)
Kind of assay: competition vs KVFPC(FI)ALINK on stripped B-LCL, FACS.
CLPLGVLMK [PRAME 80-88 CLPLGVLMK] displayed an IC50 of under 1000 nM.

SMSVWTSPR (also called PRA16-24; PRA(16-24)) [PRAME 16-24 SMSVWTSPR] showed an IC50 of under 1000 nM.

The molecule HLIGLSNLTH [PRAME 429-438 HLIGLSNLTH] displayed an IC50 of 4000 nM.

Molecule CTWKLPTLAK [PRAME 242-251 CTWKLPTLAK] yielded an IC50 of 700 nM.

In another assay the target is T3, HLA-B8 (B*0801) (human).
T3 construct: Acid-stripped B-LCL
The assay can be described thus: cell competition vs FLRGRAC(FI)GL, stripped Vavy B-LCL, FACS.
Consider MINLRRLL (also called start 259) [PRAME peptide MINLRRLL], for which the IC50 was under 1000 nM. On the same count and under the same terms, with YLHARLREL (also called start 462) [PRAME peptide YLHARLREL] the figure was under 1000 nM; with QMINLRRLLL (also called start 258) [PRAME peptide QMINLRRLLL], 1670 nM. Same read-out and setting: next, INLRRLLL (also called start 260) [PRAME peptide INLRRLLL]: under 1000 nM.

The next assay addresses T4, HLA-B61 (B*4002) (human).
T4 construct: Acid-stripped B-LCL
Kind of assay: cell competition vs GEFGGC(FI)GSV, stripped Swei007 B-LCL, FACS.
In the case of RELFPPLFM (also called start 50) [PRAME peptide RELFPPLFM], the IC50 was under 1000 nM. The same measure, in the same setting: next, LETFKAVL (also called start 94) [PRAME peptide LETFKAVL]: under 1000 nM; RELFPPLFMA (also called start 50) [PRAME peptide RELFPPLFMA]: under 1000 nM. On the same count and under the same terms, next, DEALAIAAL (also called start 37) [PRAME peptide DEALAIAAL]: under 1000 nM.

In a further assay the target is T5, HLA-B60 (B*4001) (human).
T5 construct: Acid-stripped B-LCL
The assay can be described thus: cell competition vs KESTC(FI)HLVL, stripped DKB B-LCL, FACS.
In the case of KDEALAIAAL (also called start 36) [PRAME peptide KDEALAIAAL], the IC50 was determined as 2910 nM. The same measure, in the same setting: with RELFPPLFM (also called start 50) [PRAME peptide RELFPPLFM] the figure was 1480 nM. Same read-out and setting: next, DEALAIAAL (also called start 37) [PRAME peptide DEALAIAAL]: 1550 nM. Take YEDIHGTLHL (also called start 448) [PRAME peptide YEDIHGTLHL]: the IC50 was under 1000 nM.

In the next assay the target is T6, HLA-B35 (B*3501) (human).
T6 construct: Acid-stripped B-LCL
The assay can be described thus: cell competition vs NPDIVC(FI)YQY, stripped BVR B-LCL, FACS.
On to LPRELFPPL (also called start 48) [PRAME peptide LPRELFPPL], for which the IC50 is under 1000 nM.

GACDELFSY (also called start 186) [PRAME peptide GACDELFSY] gave an IC50 of 2600 nM. On the same count and under the same terms, with LPRELFPPLF (also called start 48) [PRAME peptide LPRELFPPLF] the figure was 1580 nM; with QPFIPVEVL (also called start 170) [PRAME peptide QPFIPVEVL], 2830 nM.

LPTLAKFSPY (also called start 246) [PRAME peptide LPTLAKFSPY] displayed an IC50 of under 1000 nM. For the molecule EPILCPCFM (also called start 499) [PRAME peptide EPILCPCFM], the IC50 was under 1000 nM.

The molecule SPYLGQMINL [PRAME peptide SPYLGQMINL] had an IC50 of 1980 nM. On the same count and under the same terms, with IPVEVLVDL (also called start 173) [PRAME peptide IPVEVLVDL] the figure was 2240 nM; with FPPLFMAAF (also called start 53) [PRAME peptide FPPLFMAAF], under 1000 nM.

Another assay has as its target T7, HLA-B35 (B*3501) (human).
T7 construct: HLA class I on acid-stripped EBV-transformed B cells (B-LCL)
Kind of assay: competition vs NPDIVC(FI)YQY on stripped B-LCL, FACS.
The molecule LPTLAKFSPY [PRAME 246-255 LPTLAKFSPY] returned an IC50 of 110 nM. Same read-out and setting: next, GACDELFSY [PRAME 186-194 GACDELFSY]: 2600 nM; LPRELFPPLF [PRAME 48-57 LPRELFPPLF]: 1580 nM; FPPLFMAAF [PRAME 53-61 FPPLFMAAF]: under 1000 nM.

The molecule LPRELFPPL [PRAME 48-56 LPRELFPPL] displayed an IC50 of under 1000 nM. On the same count and under the same terms, with SPYLGQMINL [PRAME 253-262 SPYLGQMINL] the figure was 1980 nM.

The target of another assay is T8, HLA-B62 (B*1501) (human).
T8 construct: Acid-stripped B-LCL
Kind of assay: cell competition vs YLGEFSC(FI)TY, stripped BSM B-LCL, FACS.
In the case of LQHLIGLSNL (also called start 427) [PRAME peptide LQHLIGLSNL], the IC50 came out at 2410 nM.

As for LLRHVMNPL (also called start 316) [PRAME peptide LLRHVMNPL], the IC50 amounted to 2560 nM.

VLYPVPLESY (also called start 439) [PRAME peptide VLYPVPLESY] gave an IC50 of 1660 nM. On the same count and under the same terms, with GQHLHLETF (also called start 89) [PRAME peptide GQHLHLETF] the figure was 2390 nM; with ALYVDSLFF (also called start 300) [PRAME peptide ALYVDSLFF], under 1000 nM.

A further assay concerns the target T9, HLA-A3 (A*0301) (human).
T9 construct: Acid-stripped B-LCL
The assay can be described thus: cell competition vs KVFPC(FI)ALINK, stripped EKR B-LCL, FACS.
In the case of CTWKLPTLAK (also called start 242) [PRAME peptide CTWKLPTLAK], the IC50 was under 1000 nM.

As for SMSVWTSPR (also called PRA16-24; start 16) [PRAME peptide SMSVWTSPR], the IC50 was under 1000 nM. Same read-out and setting: next, HLIGLSNLTH (also called start 429) [PRAME peptide HLIGLSNLTH]: 4000 nM; CLPLGVLMK (also called start 80) [PRAME peptide CLPLGVLMK]: under 1000 nM. The same measure, in the same setting: next, RLAYLHARLR (also called start 459) [PRAME peptide RLAYLHARLR]: 1000 nM.

Another assay concerns the target T10, HLA-A1 (A*0101) (human).
T10 construct: HLA class I on acid-stripped EBV-transformed B cells (B-LCL)
Kind of assay: competition vs YLEPAC(FI)AKY on stripped B-LCL, FACS.
As for CSQLTTLSFY [PRAME 405-414 CSQLTTLSFY], the IC50 is under 1000 nM. Still for that read-out and setting: next, SLQCLQALY [PRAME 294-302 SLQCLQALY]: 2000 nM; YISPEKEEQY [PRAME 275-284 YISPEKEEQY]: 3000 nM; FLSLQCLQALY [PRAME 292-302 FLSLQCLQALY]: 1000 nM. On the same count and under the same terms, with LSHIHASSY [PRAME 267-275 LSHIHASSY] the figure was 1000 nM.

Usually IC50 stands for the concentration at which inhibition is half-maximal. Low readings indicate higher potency, high ones lower potency.
